Experimental data published in patent publication US20240093191A1, “COMPOSITIONS AND METHODS FOR TREATING DISEASE ASSOCIATED WITH DUX4 OVEREXPRESSION” (RESEARCH INSTITUTE AT NATIONWIDE CHILDREN'S HOSPITAL, priority 2021, published 2024).
“And” between values parts separate entries of the source, which are not always exact repeats. Equal entries are not always repeated.

Legend:
Format in all cases: cell-based, human
[1] = test system: DUX4 ORF (RenLuc-DUX4 ORF); test: Dual-luciferase assay, RenLuc-DUX4 ORF reporter co-transfected with miDUX4 plasmids in HEK293 cells; parameters: increase in relative Renilla luciferase activity compared to original miDUX4 counterpart: concentration or dose not given beside the values; conditions: for increase in relative Renilla luciferase activity compared to original miDUX4 counterpart: miDUX4 with mi405F flanking sequences
Procedure: Dual Luciferase Assay. (See also FIGS. 1A, 3A-B, 4A-B, 5B, and 16B-C.) This assay was performed as previously described by Wallace et al. (Mol. Ther. Methods Clin. Dev. 8: 121-30 (2018)) and following the dual-luciferase reporter assay system (Promega) protocol with some modifications. All plasmid constructs had the psiCheck2 dual luciferase reporter plasmid (Promega) as backbone that contains separate Renilla and Firefly luciferase genes, where the former contains the various target sequences used in the experiments of the disclosure, and the latter serves as a transfection normalizer (control). All DUX4 and control sequences were cloned downstream of the Renilla luciferase stop codon, serving as a 3′UTR. HEK293 cells were pre-plated 24h before transfection. Cells were then co-transfected with the luciferase DUX4 reporter and individual microRNA expression plasmids in an increasing luciferase DUX4 reporter:miRNA molar ratio using Lipofectamine 2000 (Invitrogen). Luciferase activity was measured 24h or 48h after transfection. DUX4 gene silencing was determined as previously described [Wallace et al., Mol. Ther. Methods Clin. Dev. 8: 121-30 (2018)]. Triplicate data were averaged per experiment, and individual experiments were performed 3 times. Results were reported as the average ratio of Renilla to Firefly luciferase activity±SEM for all combined experiments.
Accordingly, two new mi405 constructs, i.e., mi405F and mi405NF, were designed. […] To assess the inhibition efficiency of the three mi405 constructs, a dual-luciferase assay and western blot analysis, similar to what was described for mir-675, were carried out. In the dual-luciferase assay, U6.mi405, U6.mi405F, or U6.mi405NF was co-transfected into HEK293 cells along with the RenLuc-DUX4 ORF (a construct expressing the open reading frame of DUX4 as a 3′UTR sequence of Renilla Luciferase). 24 h after transfection, U6.mi405, U6.mi405F, and U6.mi405NF reduced the relative Renilla luciferase activity by 85±1%, 89±1%, and 66±1% (P<0.0001, ANOVA, N=3), respectively, when tested against the RenLuc-DUX4 ORF construct.

DUX4 protein = test: Western blot of V5-tagged DUX4 protein in co-transfected HEK293 cells; conditions: HEK293; for Average inhibition efficiency (%) of DUX4 protein levels: CMV.DUX4-FL/CMV.eGFP, molar ratio 1 to 3, eGFP normalizer, relative to U6-milacZ, N = 3-8
Procedure: Western Blots. […] 50 mM Tris (pH 7.5-8.0), 150 mM NaCl, 0.1% (v/v) SDS, 0.5% (v/v) deoxycholate, 1% (v/v) triton X-100 (Fisher Scientific) and 1 tablet of protease inhibitor (ThermoFisher Scientific) per 10 mL of buffer. The total protein extract was quantified using the DC Protein Assay (Bio-Rad). Twenty microgram samples were separated on 12% SDS-PAGE, transferred to nitrocellulose membrane, using the wet transfer system, and incubated with the following antibodies: mouse monoclonal antibody to V5 (horseradish peroxidase [HRP]-coupled) [1:5,000 in 5% milk TBST buffer (150 mM NaCl, 50 mM Tris-HCl pH 7.4 and 0.1% Tween 20 (Fisher Scientific)), R961-25; Invitrogen); rabbit polyclonal eGFP antibody (1:50,000 in 3% BSA PBS, ab290; Abcam); mouse monoclonal β-actin antibodies (1:60,000; Sigma, St Louis, MO); overnight at 4° C. When using the eGFP antibody, membranes were blocked 30 mins with 3% BSA PBS prior to blotting. eGFP-probed blots were washed five times, 5 min each with 0.5% Tween 20 (Fisher Scientific) in TBST buffer, and then incubated with HRP-coupled goat anti-rabbit secondary antibody (1:250,000 in 3% BSA PBS, 115-035-144; Jackson ImmunoResearch) for 2 hours at room temperature. V5-probed blots were washed five times, 5 min each with 0.1% Tween 20 in TBST buffer. Following washes, blots were developed using Immobilon Western HRP substrate (Millipore) and exposed to film. DUX4.V5, and eGFP quantification was assessed using ImageJ.

mir-675-5p = test: Small-transcript northern blot of mir-675 processing in HEK293 cells; conditions: HEK293; anti-mir-675-5p biotinylated probe
Text: Small-Transcript Northern Blots. […] (SEQ ID NO: 148)).

| Molecule | increase in relative Renilla luciferase activity compared to original miDUX4 counterpart ([1]; normalized to miGFP) [%] | Average inhibition efficiency (%) of DUX4 protein levels (DUX4 protein) | also measured |
| --- | --- | --- | --- |
| mi1311F: miDUX4 cloned with mi405F flanking sequences (nucleic acid, expressed or natural sequence) DNA: GCTCGAGTGAGCGAGCGGAGAACTGCCATTCTTTCCTGTAAAGCCACAGATGGGGAAAGAATGGCAGTTCTCCGCGTGCCTACTAGTAATTCTTCGATTCTGC | 27±9 | – | – |
| U6-milacZ: negative control miRNA expression plasmid (nucleic acid) DNA: ACGCCGCCATCTCTAGGCCCGCGCCGGCCCCCTCGCACAGACTTGTGGGAGAAGCTCGGCTACTCCCCTGCCCCGGTTAATTTGCATATAATATTTCCTAGTAACTATAGAGGCTTAATGTGCGATAAAAGACAGATAATCTGTTCTTTTTAATACTAGCTACATTTTACATGATAGGCTTGGATTTCTATAAGAGATACAAATACTAAATTATTATTTTAAAAAACAGCACAAAAGGAAACTCACCCTAACTGTAAAGTAATTGTGTGTTTTGAGACTATAAATATCCCTTGGAGAAAAGCCTTGTTTGCGTTTAGTGAACCGTCAGATGGTACCGTTTAAACTCGAGTGAGCGACATGTTGCCACTCGCTTTAATCTGTAAAGCCACAGATGGGATTAAAGCGAGTGGCAACATGGCGCCTACTAGAGCGGCCGCCACAGCGGGGAGATCCAGACATGATAAGATACATTTTTT | – | 0 ± 2 (N = 8) % | – |
| mi318F: miDUX4 cloned with mi405F flanking sequences (nucleic acid, expressed or natural sequence) DNA: GCTCGAGTGAGCGAGCCCTGCTCCTCCGAGCCTTTCTGAAAGCCACAGATGGGAAAGGCTCGGAGGAGCAGGGCGTGCCACTAGTAATTCTTCGATTCTGC | 44±15 | – | – |
| mi185F: miDUX4 cloned with mi405F flanking sequences (nucleic acid, expressed or natural sequence) DNA: GCTCGAGTGAGCGAGGTCCAGATTTGGTTTCAGAACTGTAAAGCCACAGATGGGTTCTGAAACCAAATCTGGACCCTGCCTACTAGTAATTCTTCGATTCTGC | 160±8 | – | – |
| mi186F: miDUX4 cloned with mi405F flanking sequences (nucleic acid, expressed or natural sequence) DNA: GCTCGAGTGAGCGAGTCCAGATTTGGTTTCAGAATCTGTAAAGCCACAGATGGGATTCTGAAACCAAATCTGGACCTGCCTACTAGTAATTCTTCGATTCTGC | 27±9 | – | – |
| U6-mir-675-2.4: mir-675 construct with flanks as U6.mir-675-2.3, different promoter (nucleic acid) DNA: GAACGCTGACGTCATCAACCCGCTCCAAGGAATCGCGGGCCCAGTGTCACTAGGCGGGAACACCCAGCGCGCGTGCGCCCTGGCAGGAAGATGGCTGTGAGGGACAGGGGAGTGGCGCCCTGCAATATTTGCATGTCGCTATGTGTTCTGGGAAATCACCATAAACGTGAAATGTCTTTGGATTTGGGAATCTTATAAGTTCTGTATGAGACCACTTGGATCCAATCACACTGCCCCAGGGTCTGGTGCGGAGAGGGCCCACAGTGGACTTGGTGACGCTGTATGCCCTCACCGCTCAGCCCCTGGGGATACTCCTAATCACACTTTTTT | – | 63 ± 7 (N = 5) % | – |
| mi599F: miDUX4 cloned with mi405F flanking sequences (nucleic acid, expressed or natural sequence) DNA: GCTCGAGTGAGCAGAGGCTCTCCCACAGGGGGCTTTCTGAAAGCCACAGATGGGAAAGCCCCCTGTGGGAGAGCCCTGCCTACTAGTAATTCTTCGATTCTGC | 24±9 | – | – |
| U6-mir-675-2.6: mir-675 construct with modified 5' and 3' flanking sequences (nucleic acid) DNA: TCTAGAGATCCGACGCCGCCATCTCTAGGCCCGCGCCGGCCCCCTCGCACAGACTTGTGGGAGAAGCTCGGCTACTCCCCTGCCCCGGTTAATTTGCATATAATATTTCCTAGTAACTATAGAGGCTTAATGTGCGATAAAAGACAGATAATCTGTTCTTTTTAATACTAGCTACATTTTACATGATAGGCTTGGATTTCTATAAGAGATACAAATACTAAATTATTATTTTAAAAAACAGCACAAAAGGAAACTCACCCTAACTGTAAAGTAATTGTGTGTTTTGAGACTATAAATATCCCTTGGAGAAAAGCCTTGTTAACGCGCCCCAGGGTCTGGTGCGGAGAGGGCCCACAGTGGACTTGGTGACGCTGTATGCCCTCACCGCTCAGCCCCTGGGGTAACTCCTAATCACACTTTTTT | – | 63 ± 2 (N = 5) % | – |
| U6.mi405NF: mi405 with one G at 5' end and no 3' flanking sequence (nucleic acid) DNA: ACGCCGCCATCTCTAGGCCCGCGCCGGCCCCCTCGCACAGACTTGTGGGAGAAGCTCGGCTACTCCCCTGCCCCGGTTAATTTGCATATAATATTTCCTAGTAACTATAGAGGCTTAATGTGCGATAAAAGACAGATAATCTGTTCTTTTTAATACTAGCTACATTTTACATGATAGGCTTGGATTTCTATAAGAGATACAAATACTAAATTATTATTTTAAAAAACAGCACAAAAGGAAACTCACCCTAACTGTAAAGTAATTGTGTGTTTTGAGACTATAAATATCCCTTGGAGAAAAGCCTTGTTTGCTCGAGTGAGCGATCCAGGATTCAGATCTGGTTTCTGTAAAGCCACAGATGGGAAACCAGATCTGAATCCTGGACTGCCTACTAGATTTTTT | – | – | reduction of relative Renilla luciferase activity ([1]; 1:4 DUX4:mi405 molar ratio, HEK293, 24 h, normalized to miGFP): 66±1%; reduction of Renilla luciferase activity ([1]; DUX4:mi405 molar ratio 2 to 1, HEK293, 24 h, normalized to U6.miGFP): 4±2% and 3.6±1.8%; relative Renilla luciferase activity reached ([1]; DUX4:miDUX4 molar ratio 1:1): 88±3%; increase in relative Renilla luciferase activity ([1]; switching from molar ratio 1:2 to 1:1 DUX4:miDUX4): 73±7%; reduction of DUX4 protein levels (DUX4 protein; 1:4 DUX4:mi405 molar ratio, 24 h, normalized to miGFP, N=2): 70±13% |
| mi1156F: miDUX4 cloned with mi405F flanking sequences (nucleic acid, expressed or natural sequence) DNA: GCTCGAGTGAGCGAAGGCGCAACCTCTCCTAGAAACTGAAAGCCACAGATGGGTTTCTAGGAGAGGTTGCGCCTGTGCCTACTAGTAATTCTTCGATTCTGC | 34±8 | – | – |
| U6.mir-675-2.2: mir-675 construct with flanks as U6.mir-675-2.1, different promoter (nucleic acid) DNA: GAACGCTGACGTCATCAACCCGCTCCAAGGAATCGCGGGCCCAGTGTCACTAGGCGGGAACACCCAGCGCGCGTGCGCCCTGGCAGGAAGATGGCTGTGAGGGACAGGGGAGTGGCGCCCTGCAATATTTGCATGTCGCTATGTGTTCTGGGAAATCACCATAAACGTGAAATGTCTTTGGATTTGGGAATCTTATAAGTTCTGTATGAGACCACTTGGATCCCCCAGGGTCTGGTGCGGAGAGGGCCCACAGTGGACTTGGTGACGCTGTATGCCCTCACCGCTCAGCCCCTGGGGTAACTCCTAATCACACTTTTTT | – | 58 ± 6 (N = 5) % | mature mir-675-5p bands on northern blot (mir-675-5p): detectable mir-675 mature sequences |
